{"source": "patent US5502166", "about": "“NMDH receptor proteins and genes encoding the same” (Mitsubishi Chemical Corporation, dated 1996)", "target": "ζ1 NMDA type glutamate receptor subunit (mouse, wild type) (mouse, UniProt P35438)", "assay": "cell-based or functional assay"}
{"binder": "glutamate receptor ε3 subunit (mouse NMDA type glutamate receptor channel subunit) (receptor) not shown", "values": [{"measurement": "inward current at a membrane potential of -70 mV, Xenopus oocytes, 10 µM L-glutamate and 10 µM glycine, frog standard Ringer's solution", "result": 191, "unit": "nA"}]}
